In publication PMC7062751:

What was measured:
[1] = target: free SUMO1 (UniProt P63165); assay: pull-down (IP: TEX264-GFP) with immunoblot, quantified band ratio; conditions: purified GFP-tagged TEX264 incubated with free SUMO1; parent: 1
[2] = target: TEX264^SIM2*-FLAG (SIM2-mutated variant) (UniProt Q9Y6I9); assay: co-IP; tandem affinity purification from ΔTEX264 HEK293 co-expressing FLAG-tagged TEX264 and HA-SUMO1: FLAG IP under native conditions, then anti-HA IP after boiling in 1% SDS; eluates probed for TOP1
UniProt Q9Y6I9, sequence (Q9Y6I9 whole entry, stated change not applied): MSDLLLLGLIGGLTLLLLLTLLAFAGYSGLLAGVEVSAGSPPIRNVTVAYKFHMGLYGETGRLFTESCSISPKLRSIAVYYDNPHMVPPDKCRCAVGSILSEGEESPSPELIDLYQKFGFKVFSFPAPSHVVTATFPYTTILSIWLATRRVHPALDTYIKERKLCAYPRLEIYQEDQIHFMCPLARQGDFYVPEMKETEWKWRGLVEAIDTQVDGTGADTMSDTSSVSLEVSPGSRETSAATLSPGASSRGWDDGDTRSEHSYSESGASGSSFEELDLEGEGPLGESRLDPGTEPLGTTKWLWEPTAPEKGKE

UniProt P63165, sequence (P63165 1-97): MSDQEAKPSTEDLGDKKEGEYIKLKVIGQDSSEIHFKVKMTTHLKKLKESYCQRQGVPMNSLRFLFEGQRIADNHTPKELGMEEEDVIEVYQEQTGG

Row | ratio to parent [1] | percent less co-immunoprecipitated than with TEX264^WT [2] [%] | Substance
1 | 0 |  | GFP-tagged TEX264, wild type (from UniProt Q9Y6I9) SIM2*
2 |  | 70 | SUMO1-modified TOP1 (HA-SUMO1 conjugated to endogenous TOP1) (from UniProt P11387 1-765; P63165 1-97)
3 | 0.25 |  | GFP-tagged TEX264, wild type (from UniProt Q9Y6I9) SIM1*
